Earlier results on 1 substance are cited in PMC6515277.

Where two headings read alike, the source gives them in different places.

In data set [1] the target is merlin CTD CTD (Homo sapiens) (UniProt P35240). The data set is described as follows: ITC. Background: ITC needs no label: the signal is the heat of the interaction.
Data set [2] shares this target. The experiment in a line: ITC. This is another data set of the same source.

For orientation: Kd means the concentration at which binding is half-saturated. Turning to merlin FERM FERM (from UniProt P35240), the Kd in data set [1] and in data set [2] was 4 µM in each case.
